US20220160939A1, “SELF-ASSEMBLING PEPTIDES AS BRONCHIAL OBSTRUCTION AGENTS” (3-D MATRIX, LTD., priority 2014, published 2022)

Legend:
Format in all cases: physicochemical
[1] = pH and appearance of 2.5% peptide solutions after adding 0.1 N NaOH
Procedure: To adjust the pH level of the peptide solutions by way of example, 0.1 N NaOH was added to 2 mL of 2.5% peptide solutions and their pH and appearance were measured.

[2] = Rheological properties of pH adjusted peptide solutions; conditions: pH adjusted vs not adjusted; KLD12 1%, IEIK13 1%, PuraMatrix 1% and 2.5%
Procedure: Based on the visual observation of the effect of pH level on the properties of the peptide solutions, the effect on the rheological properties of the peptide solutions after adjusting their pH level to 3.4 (PuraMatrix® (SEQ ID NO:1) and KLD12 (SEQ ID NO:3)) or 3.7 (IEIK13 (SEQ ID NO:2)) was evaluated. If the pH levels of peptide solutions are higher than 3.5 (PuraMatrix® (SEQ ID NO:1) and KLD12 (SEQ ID NO:3)) or 3.7 (IEIK13 (SEQ ID NO:2)), the peptide solution began phase separation becoming cloudy. The rheological properties of PuraMatrix® (SEQ ID NO:1), KLD12 (SEQ ID NO:3) and IEIK13 (SEQ ID NO:2) solutions were higher at pH 3.4. The results are shown in FIG. 2 for KLD12 (SEQ ID NO:3) 1%, FIG. 3 for IEIK13 (SEQ ID NO:2) 1%, and FIGS. 4-5 for PuraMatrix® (SEQ ID NO:1) 1% and 2.5%, respectively. Stress sweep tests were performed at 10 rad/s. Frequency sweep tests were performed at 1 Pa.
Based on the results of the effect on the rheological properties of the peptide solutions after adjusting their pH level to 3.4 (PuraMatrix® (SEQ ID NO:1) and KLD12 (SEQ ID NO:3)) or 3.7 (IEIK13 (SEQ ID NO:2)), the effect on the rheological properties of the peptide solutions at various pH levels was evaluated. […] The rheological properties of peptides were evaluated at various concentrations using a rheometer (DHR-1, TA Instruments) with 20 mm plates. The results are shown in FIG. 6A for PuraMatrix® (SEQ ID NO:1) 2.5% solution and FIG. 6B for IEIK13 (SEQ ID NO:2) 1.5% solution, respectively. Frequency sweep tests were performed from 1 rad/sec to 10 rad/sec at 1 Pa and the storage modulus at 1 rad/sec was selected for data.

[3] = Appearance of 1.5% peptide solutions with various salts at room temperature; conditions: for Appearance: room temperature
Procedure: The effect of salt ionic strength level on the properties of peptide solutions was evaluated to identify optimized salt ionic strength levels for the peptides as described herein. Increasing the salt ionic strength level of PuraMatrix® (SEQ ID NO:1) and other peptides may generally improve its function and mechanical strength for various clinical applications. To adjust the salt ionic strength of the peptide solutions by way of example, various salt buffer solutions including NaCl, KCl, MgCl2, CaCl2 and DPBS (10×) were added to 2 mL of 1.5% peptide solutions.

## Arg-Ala-Asp-Ala-Arg-Ala-Asp-Ala-Arg-Ala-Asp-Ala-Arg-Ala-Asp-Ala [PuraMatrix ®]
[1]; 0.1N NaOH 150 μL/mL added in 2.5% solution, conc. 2.17%
  Appearance: Clear, thick, stiffer gel
[1]; 0.1N NaOH 200 μL/mL added in 2.5% solution, conc. 2.08%
  Appearance: Clear, thick, stiffer gel
[1]; 0.1N NaOH 250 μL/mL added in 2.5% solution, conc. 2.0%
  Appearance: Clear, thick, stiffer gel
[1]; 0.1N NaOH 275 μL/mL added in 2.5% solution, conc. 1.96%
  Appearance: Clear, thick, stiffer gel
[1]; 0.1N NaOH 300 μL/mL added in 2.5% solution, conc. 1.92%
  Appearance: Slightly cloudy, brittle gel
[1]; 0.1N NaOH 350 μL/mL added in 2.5% solution, conc. 1.85%
  Appearance: Cloudy, phase-separated
[1]; NaOH volume and conc. not given
  Peptide solution pH: 7.0
[1]; peptide solution pH 7.0, NaOH volume and conc. not given
  Appearance: Cloudy, phase-separated
[2]
  rheological properties of solutions at pH 3.4: higher
[3]
  critical salt ionic strengths at which peptides become cloudy: 0.9˜1.2 M
[3]; CaCl2 0 M, ionic strength 0 M, conc. 1.5%
  Appearance: Clear, thick gel
[3]; CaCl2 0.05 M, ionic strength 0.15 M, conc. 1.48%
  Appearance: Clear, thick, stiffer gel
[3]; CaCl2 0.1 M, ionic strength 0.3 M, conc. 1.45%
  Appearance: Clear, thick, stiffer gel
[3]; CaCl2 0.15 M, ionic strength 0.45 M, conc. 1.43%
  Appearance: Clear, thick, stiffer gel
[3]; CaCl2 0.2 M, ionic strength 0.6 M, conc. 1.4%
  Appearance: Clear, thick, stiffer gel
[3]; CaCl2 0.25 M, ionic strength 0.75 M, conc. 1.38%
  Appearance: Clear, thick, stiffer gel
[3]; CaCl2 0.3 M, ionic strength 0.9 M, conc. 1.35%
  Appearance: Clear, thick, stiffer gel
[3]; CaCl2 0.35 M, ionic strength 1.05 M, conc. 1.32%
  Appearance: Clear, thick, stiffer gel
[3]; CaCl2 0.383 M, ionic strength 1.15 M, conc. 1.31%
  Appearance: Clear, thick, stiffer gel
[3]; CaCl2 0.4 M, ionic strength 1.2 M, conc. 1.3%
  Appearance: Slightly cloudy, thick, stiffer gel
[3]; CaCl2 0.417 M, ionic strength 1.25 M, conc. 1.29%
  Appearance: Slightly cloudy, brittle gel
[3]; CaCl2 0.433 M, ionic strength 1.3 M, conc. 1.28%
  Appearance: Cloudy, phase-separated
[3]; DPBS (pH 3.2) 0 M, ionic strength 0 M, conc. 1.5%
  Appearance: Clear, thick gel
[3]; DPBS (pH 3.2) 0.15 M, ionic strength 0.15 M, conc. 1.35%
  Appearance: Clear, thick, stiffer gel
[3]; DPBS (pH 3.2) 0.3 M, ionic strength 0.3 M, conc. 1.2%
  Appearance: Clear, thick, stiffer gel
[3]; DPBS (pH 3.2) 0.45 M, ionic strength 0.45 M, conc. 1.05%
  Appearance: Clear, thick, stiffer gel
[3]; DPBS (pH 3.2) 0.6 M, ionic strength 0.6 M, conc. 0.9%
  Appearance: Clear, thick, stiffer gel
[3]; DPBS (pH 3.2) 0.75 M, ionic strength 0.75 M, conc. 0.75%
  Appearance: Clear, thick, stiffer gel
[3]; DPBS (pH 3.2) 0.9 M, ionic strength 0.9 M, conc. 0.6%
  Appearance: Clear, thick, stiffer gel
[3]; DPBS (pH 3.2) 0.95 M, ionic strength 0.95 M, conc. 0.55%
  Appearance: Slightly cloudy, brittle gel
[3]; DPBS (pH 3.2) 1.0 M, ionic strength 1.0 M, conc. 0.5%
  Appearance: Cloudy, phase-separated
[3]; KCl 0 M, ionic strength 0 M, conc. 1.5%
  Appearance: Clear, thick gel
[3]; KCl 0.15 M, ionic strength 0.15 M, conc. 1.43%
  Appearance: Clear, thick, stiffer gel
[3]; KCl 0.3 M, ionic strength 0.3 M, conc. 1.35%
  Appearance: Clear, thick, stiffer gel
[3]; KCl 0.45 M, ionic strength 0.45 M, conc. 1.27%
  Appearance: Clear, thick, stiffer gel
[3]; KCl 0.6 M, ionic strength 0.6 M, conc. 1.2%
  Appearance: Clear, thick, stiffer gel
[3]; KCl 0.75 M, ionic strength 0.75 M, conc. 1.13%
  Appearance: Clear, thick, stiffer gel
[3]; KCl 0.9 M, ionic strength 0.9 M, conc. 1.05%
  Appearance: Clear, thick, stiffer gel
[3]; KCl 0.95 M, ionic strength 0.95 M, conc. 1.03%
  Appearance: Clear, thick, stiffer gel
[3]; KCl 1.0 M, ionic strength 1.0 M, conc. 1.0%
  Appearance: Clear, thick, stiffer gel
[3]; KCl 1.05 M, ionic strength 1.05 M, conc. 0.98%
  Appearance: Slightly cloudy, thick, stiffer gel
[3]; KCl 1.1 M, ionic strength 1.1 M, conc. 0.95%
  Appearance: Slightly cloudy, brittle gel
[3]; KCl 1.15 M, ionic strength 1.15 M, conc. 0.93%
  Appearance: Cloudy, phase-separated
[3]; MgCl2 0 M, ionic strength 0 M, conc. 1.5%
  Appearance: Clear, thick gel
[3]; MgCl2 0.05 M, ionic strength 0.15 M, conc. 1.48%
  Appearance: Clear, thick, stiffer gel
[3]; MgCl2 0.1 M, ionic strength 0.3 M, conc. 1.45%
  Appearance: Clear, thick, stiffer gel
[3]; MgCl2 0.15 M, ionic strength 0.45 M, conc. 1.43%
  Appearance: Clear, thick, stiffer gel
[3]; MgCl2 0.2 M, ionic strength 0.6 M, conc. 1.4%
  Appearance: Clear, thick, stiffer gel
[3]; MgCl2 0.25 M, ionic strength 0.75 M, conc. 1.38%
  Appearance: Clear, thick, stiffer gel
[3]; MgCl2 0.3 M, ionic strength 0.9 M, conc. 1.35%
  Appearance: Clear, thick, stiffer gel
[3]; MgCl2 0.35 M, ionic strength 1.05 M, conc. 1.32%
  Appearance: Clear, thick, stiffer gel
[3]; MgCl2 0.383 M, ionic strength 1.15 M, conc. 1.31%
  Appearance: Clear, thick, stiffer gel
[3]; MgCl2 0.4 M, ionic strength 1.2 M, conc. 1.3%
  Appearance: Slightly cloudy, thick, stiffer gel
[3]; MgCl2 0.417 M, ionic strength 1.25 M, conc. 1.29%
  Appearance: Slightly cloudy, brittle gel
[3]; MgCl2 0.433 M, ionic strength 1.3 M, conc. 1.28%
  Appearance: Cloudy, phase-separated
[3]; NaCl 0 M, ionic strength 0 M, conc. 1.5%
  Appearance: Clear, thick gel
[3]; NaCl 0.15 M, ionic strength 0.15 M, conc. 1.43%
  Appearance: Clear, thick, stiffer gel
[3]; NaCl 0.3 M, ionic strength 0.3 M, conc. 1.35%
  Appearance: Clear, thick, stiffer gel
[3]; NaCl 0.45 M, ionic strength 0.45 M, conc. 1.27%
  Appearance: Clear, thick, stiffer gel
[3]; NaCl 0.6 M, ionic strength 0.6 M, conc. 1.2%
  Appearance: Clear, thick, stiffer gel
[3]; NaCl 0.75 M, ionic strength 0.75 M, conc. 1.13%
  Appearance: Clear, thick, stiffer gel
[3]; NaCl 0.8 M, ionic strength 0.8 M, conc. 1.10%
  Appearance: Clear, thick, stiffer gel
[3]; NaCl 0.85 M, ionic strength 0.85 M, conc. 1.08%
  Appearance: Clear, thick, stiffer gel
[3]; NaCl 0.9 M, ionic strength 0.9 M, conc. 1.05%
  Appearance: Slightly cloudy, brittle gel
[3]; NaCl 0.95 M, ionic strength 0.95 M, conc. 1.03%
  Appearance: Cloudy, phase-separated
[3]; NaCl 1.0 M, ionic strength 1.0 M, conc. 1.0%
  Appearance: Cloudy, phase-separated
[3]; depending on different salts, 1.5% peptide solutions
  salt ionic strength increase that did not change the clear color, while apparent stiffness increased: 0.85˜1.15 M
